Measurements: paper PMC4721541 (Bioscience Reports, 2015)
Where a chain is given by its changes, count along the chain named. Numbers in names are those of the source.

B1: Erv1 (essential for respiration and viability 1), wild type (enzyme, S. cerevisiae, UniProt P27882 1-189, looked up)
chain: MKAIDKMTDNPPQEGLSGRKIIYDEDGKPCRSCNTLLDFQYVTGKISNGLKNLSSNGKLAGTGALTGEASELMPGSRTYRKVDPPDVEQLGRSSWTLLHSVAASYPAQPTDQQKGEMKQFLNIFSHIYPCNWCAKDFEKYIRENAPQVESREELGRWMCEAHNKVNKKLRKPKFDCNFWEKRWKDGWDE
notes: Erv1, Saccharomyces cerevisiae, FAD-dependent thiol oxidase, 189 amino acids, full length; Construct in pET24a(+) (NdeI/XhoI); also called WT Erv1; WT; source: E. coli Rosetta-gami 2, purified (Ni2+ resin, gel filtration)
B2: Erv1 W157F (enzyme, S. cerevisiae, UniProt P27882 1-189, looked up)
chain: B1 chain with W157F
notes: Erv1, Saccharomyces cerevisiae, 189 amino acids, full length, with W157F; Made by site-directed mutagenesis on the construct of m1; source: E. coli Rosetta-gami 2, purified (Ni2+ resin, gel filtration)
B3: Erv1 W132F (enzyme, S. cerevisiae, UniProt P27882 1-189, looked up)
chain: B1 chain with W132F
notes: Erv1, Saccharomyces cerevisiae, 189 amino acids, full length, with W132F; Made by site-directed mutagenesis on the construct of m1; source: E. coli Rosetta-gami 2, purified (Ni2+ resin, gel filtration)
B4: Erv1 W179F (enzyme, S. cerevisiae, UniProt P27882 1-189, looked up)
chain: B1 chain with W179F
notes: Erv1, Saccharomyces cerevisiae, 189 amino acids, full length, with W179F; Made by site-directed mutagenesis on the construct of m1; source: E. coli Rosetta-gami 2, purified (Ni2+ resin, gel filtration)
B5: Erv1 W187F (enzyme, S. cerevisiae, UniProt P27882 1-189, looked up)
chain: B1 chain with W187F
notes: Erv1, Saccharomyces cerevisiae, 189 amino acids, full length, with W187F; Made by site-directed mutagenesis on the construct of m1; source: E. coli Rosetta-gami 2, purified (Ni2+ resin, gel filtration)
B6: Erv1 W95F (enzyme, S. cerevisiae, UniProt P27882 1-189, looked up)
chain: B1 chain with W95F
notes: Erv1, Saccharomyces cerevisiae, 189 amino acids, full length, with W95F; Made by site-directed mutagenesis on the construct of m1; source: E. coli Rosetta-gami 2, purified (Ni2+ resin, gel filtration)
B7: Erv1 W183F (enzyme, S. cerevisiae, UniProt P27882 1-189, looked up)
chain: B1 chain with W183F
notes: Erv1, Saccharomyces cerevisiae, 189 amino acids, full length, with W183F; Made by site-directed mutagenesis on the construct of m1; FAD content 71% as purified; source: E. coli Rosetta-gami 2, purified (Ni2+ resin, gel filtration)

Target: the molecule itself
Test: SEC; gel filtration on Superdex 200 10/30, 4°C, BAE (150 mM NaCl, 50 mM Tris/HCl, 1 mM EDTA, pH 7.4); oligomer state by elution position against the WT

Row | Protein | stoichiometry N
1 | B1 | 4
2 | B2 | 4
3 | B3 | 4
4 | B4 | 4
5 | B5 | 4
6 | B6 | 4

Target: the molecule itself
Test: SEC-MALS; multi-angle laser light scattering after Superdex 200 10/30 in buffer A (150 mM NaCl, 50 mM Tris/HCl, pH 7.4); DAWN EOS photometer, Optilab rEX refractor

Row | Protein | stoichiometry N
7 | B7 | 2
